Test results from paper PMC6629726, “Domain swapping of complementarity-determining region in nanobodies produced by Pichia pastoris” (AMB Express, 2019).

Legend:
[1] = target: T1, Recombinant CD4 (cluster of differentiation 4) (Homo sapiens (species ), UniProt P01730); assay: SPR; BIACORE T-200; CD4 amine-coupled on CM5 (9695.5 RU); nanobodies 0.4 μM flowed over, 25 °C, HBS-EP pH 7.4, contact 180 s, 30 μL/min; binding level relative to CD4 N = 1; N = 3; conditions: both partners purified
T1 construct: CD4, recombinant, bought from R&D Systems; No catalogue number is printed; a bought soluble CD4 is probably the extracellular domain, possibly tagged (surmise); source: bought: R&D Systems

[2] = target: T2, Recombinant GFP (green fluorescent protein) (UniProt P42212 = GFP); assay: SPR; BIACORE T-200; GFP amine-coupled on CM5 (1189.8 RU); nanobodies 0.4 μM flowed over, 25 °C, HBS-EP pH 7.4, contact 180 s, 30 μL/min; binding level relative to GFP N = 1; N = 3; conditions: both partners purified
T2 construct: green fluorescent protein, recombinant, bought from ProSpec; No catalogue number is printed; source: bought: ProSpec

B1: chimeric nanobody with CDR3 of GFP-nanobody replaced with that of CD4-nanobody (VHH)
VHH: QVQLVESGGALVQPGGSLRLSCAASGFPVNRYSMRWYRQAPGKEREWVAGMSSAGDRSSYEDSVKGRFTISRDDARNTVYLQMNSLKPEDTAVYYCAADTYNSNPARWDGYDFRGQGTQVTVSS
notes: everything before CDR3 (scaffold, CDR1, CDR2), as in the VHH of m1; CDR3, as in the VHH of m2; scaffold after CDR3, as in the VHH of m1; also called cCD4 CDR3; not shown: long peptide tag containing two FLAG-tags, C-terminal, kept
[1]
  relative binding response (CD4N to CD4 = 1): 0.1
[2]
  binding result: no binding (tested: 0.4 μM)

B2: chimeric nanobody in which all CDRs of GFP-nanobody had been replaced with those of CD4-nanobody (VHH)
VHH: QVQLVESGGALVQPGGSLRLSCAASGRTFNVMRWYRQAPGKEREWVAAVRWSSTGIYYTQYADSVKGRFTISRDDARNTVYLQMNSLKPEDTAVYYCAADTYNSNPARWDGYDFRGQGTQVTVSS
notes: scaffold before CDR1, as in the VHH of m1; CDR1, as in the VHH of m2; scaffold between CDR1 and CDR2, as in the VHH of m1; CDR2, as in the VHH of m2; scaffold between CDR2 and CDR3, as in the VHH of m1; CDR3, as in the VHH of m2; scaffold after CDR3, as in the VHH of m1; not shown: long peptide tag containing two FLAG-tags, C-terminal, kept
[1]
  relative binding response (CD4N to CD4 = 1): 0.096

B3: chimeric nanobody with CDR2 of GFP-nanobody replaced with that of CD4-nanobody (VHH)
VHH: QVQLVESGGALVQPGGSLRLSCAASGFPVNRYSMRWYRQAPGKEREWVAAVRWSSTGIYYTQYADSVKGRFTISRDDARNTVYLQMNSLKPEDTAVYYCNVNVGFEYWGQGTQVTVSS
notes: everything before CDR2 (scaffold, CDR1), as in the VHH of m1; CDR2, as in the VHH of m2; everything after CDR2 (scaffold, CDR3), as in the VHH of m1; also called cCD4 CDR2; not shown: long peptide tag containing two FLAG-tags, C-terminal, kept
[1]
  relative binding response (CD4N to CD4 = 1): 0.091
